In test [1] the target is Protein Kinase A catalytic subunit (bos taurus) (UniProt P00517). Nature of the test: cell-based or functional assay.
Test [2] has the same target. Briefly: holoenzyme formation with CS; method and reference not described.

We go through three substances from patent US20110275057A1.

In test [1], “RIα-DNA chimera: PKA regulatory subunit (Ser 145→Cys; Gly 235→Cys) with a single stranded DNA 60 mer coupled to the two Cys residues (from UniProt Q9DBC7 1-381)” came in with a kinase activity, fold increase on addition of cAMP to the chimera holoenzyme, batch of FIG. 17a of 3 fold; a kinase activity, fold increase on addition of cAMP to the chimera holoenzyme, second batch (FIG. 17b) of 2 fold; a γcAMP (case γDNA<γcAMP) of 2.3 fold; a γcAMP (increase in activity by cAMP; case γDNA≧γcAMP) of 2.6 fold. Besides, the decrease in associating with the CS to form the holoenzyme in test [2] amounted to 20%.
As for “Protein Kinase A regulatory subunit (RIα isomer), double Cys mutant (Ser 145→Cys; Gly 235→Cys), no DNA coupled (from UniProt Q9DBC7 1-381)”, in test [1], the inhibitory effects (on kinase activity) relative to the wild type RS is above 80% and the kinase activity, fold increase on addition of cAMP to the holoenzyme built with the Cys mutant without DNA (FIG. 17b) stood at 3 fold.
As for “RIα-DNA chimera hybridized with the complementary DNA 60 mer (ds chimera, under mechanical tension) (from UniProt Q9DBC7 1-381)”, in test [1], the kinase activity (Luciferase assay, ATP disappearance), fold increase over the ss chimera holoenzyme, batch of FIG. 17a was 2 fold; the kinase activity, increase over the ss chimera holoenzyme, second synthesis batch (FIG. 17b) amounted to 50%; the γDNA (increase in activity by the complementary DNA, corrected for the yield; case γDNA≧γcAMP) stood at 2.7 fold.
